40 sequences from the nanobody polyreactivity screen of Harvey et al. (2022) can be followed below.

This series in a line: yeast display, Sf9 membrane polyspecificity reagent, FACS + sequencing; frameworks hold sequencing errors. The method, boiled down:
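A synthetic nanobody library was expressed on Saccharomyces cerevisiae BJ5465 by galactose induction for 36–48 hours. The library was stained for 1 hour at 4 °C with 10% biotinylated, detergent-solubilized Sf9 membrane reagent and enriched with streptavidin microbeads before FACS. Low and high (top ~1%) gates were set on anti-HA fluorescence for expression and streptavidin fluorescence for reagent binding, and each polyreactivity label reflects the gate of origin.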
Turning to “QVQIVESGGGLVQAGGSLRLSCDASGFTFFKYAMGWYRHAPGKERELVATISIDCITNYADSVKGRFTISRDNAKNTVYLQMNSLKPEDTAVYYCNARSLYQQLGYWGQGTQVTVSS”, the “polyreactivity (PSR sort gate)” value is reported as “low polyreactivity”. In the case of “QVQIVESGGGLVQAGGSLRLSCPASGRIFYNNAMGWYRPAPGKERELVAAINWSGGSTYYADSVKGRFTISRDNAKNTVYLQMNSLKPEDTAVYYCNADPHGYYGYGYDYWGQGTQVTVSS”, the “polyreactivity (PSR sort gate)” value was “low polyreactivity”.

On to “QVQIVESGGGLVQAGGSLRLSCPASGSTFSRYAMGWYRQAPGKERELVAAISWSGGRTYYADSVKGRFTISRDYATNTVYLLMNSLKPEDTAVYYCAARKLVVILREEYWVQGTQVTVSS”, for which the “polyreactivity (PSR sort gate)” value was “high polyreactivity”. In the case of “QVQIVESGGGLVQAGGSLRLSSAASGSIFPAYAMGWYSLAPWKERELVASITGSGGTTYYADSVKGRFTISRDNAKNTGYLQMNSLKPVDTADNYCNARYYVYSATVDRYGYWGQGSQVTVSS” it was “high polyreactivity”. As for “QVQIVESGGGLVQAGGSLRLTCAASGFIFSRYAMGWYRQAPAKERELVAAITSGGRTNYADSVKGRFTISRDNAKNTVYLQMNRLKPEDTAVYYCSGAFYPFWPRYTSDYWGQGTQVTVSS”, the “polyreactivity (PSR sort gate)” value is “high polyreactivity”. As for “QVQIVESGGGLVQAGGSLRLTCAASGLISTYYVMGWYRQAPGKERELVAAIRASDASTYYADSVKGRFTISRDNAKNTVYLQMNSLKPEDTAVYYCATDSYYVDDTEYDYWGQGTQVTVSS”, the entry is “low polyreactivity”. As for “QVQIVESGGGLVQAGGSLRLTCAASGSIFGYYAMGWYRQAPGKERELVAAITTGGSTSYADSVKGRFTISRDNAKKTVYLQMNSLKPEDTAVYYCNARFKLLFGRADDYWGQGTQVTVSS”, the entry is “low polyreactivity”; as for “QVQIVESGGGLVQAGGSLRVSCAASGSIFKIYAMGWYRQAPGKERELVASITGSGGSTYYADSVKGRFTISRDNAKNTVYLQMNSLKPEDTAVYYCAAAVLGSSTSEVDPDRPEYYYWGHGTQVTVSS”, “low polyreactivity”; as for “QVQIVESGGGLVQAGGSLRVSCAASGSTFAVYAMGWYRQAPGKEREMVAAISQSGGSTNYADSVKGRFTISRDNAKNTVYLQMNSLKPEDTAVYYCNVDVSRSWAQPYTYDYWGHGTQVTVSS”, “low polyreactivity”. For “QVQIVESGGGLVQAGGSVRLSCAASGRTFYYNAMGWYRQAPGKERELVASISSSDSDTYYADSVKGRFTISRDNAKNTVYLQMNSLKPEDTAVYYCAAEYYWDLTFTRYDYWGQGTQVTVSS”, the “polyreactivity (PSR sort gate)” value is recorded as “low polyreactivity”. For the sequence “QVQIVESGGGLVQAGGTLRLSCAASGLTFAYYDMGWYSQAPGKERELVAAITSVGTTNYADSVKGRFSISRDNSKNTVYLKMNSLKPEDTAVYYCNADYFSRIVGDRIYDYCGQGTQVTVSS”, the “polyreactivity (PSR sort gate)” value is “low polyreactivity”. As for “QVQIVESGGGLVQAGVSLRISCAASGSTFADYTMGWYRQAPGKERELVAAISQSGARTYYADSVKGRFTISRDNAKNTVYLQMNSLKPEDTAVYYCAATKAASGPYFRYYYWGQGTQVTVSS”, the entry is “high polyreactivity”.

In the case of “QVQIVESGGGLVQARGSLRLSCAASGRTFYGYALGWYRQAPGKERELVASIRSRTGSTYYADSVKGRFTISRDNAKNTVYLLMNILKPEDTAVYYCARPYYAKGFAFDYWGLGTQVTVSS”, the “polyreactivity (PSR sort gate)” value is “high polyreactivity”. As for “QVQIVESGGGLVQARGSLRLSFAASGFTFSHYAMGWYRQAPGKERELVAAISASGGRTYFADSVKGRFTISRDNAKNTVYVQMNSLKPEDTAVYYCAAKLYDCGGRYWYVYWGQGTQVTVSS”, the entry is “high polyreactivity”; as for “QVQIVESGGGLVQGGGSLRLSCAASGSIFGGNAMGWYRQAPGKERELVATITVRGGSTYNADSVKGRFTISRDNAKNTVYLQMNSLKPEDTAVYYCAARGVYLLPKYDYWGQGTQVTVSS”, “low polyreactivity”; as for “QVQIVESGGGSVQAGGSLRLSCADSGFTFRKNAMGWYRQAPGKERELVAAISVSGGRTYYADSVKVRFTISRDNAKNTFYLQMNSLKPEETAVYYCAARRYVLVHKYDYWGQGTQVTVSS”, “high polyreactivity”.

Turning to “QVQIVESGGVLVQAGGSLRLSCAASGLTLKRYAMGWYRQAPRKERELVASITGSGGSTYADTVKARFTISRDNAKNTVYLHMNSLNPEDTAVYYCAKDTRYEYVGSEYCFWGQGTQVTVSS”, the “polyreactivity (PSR sort gate)” value is reported as “low polyreactivity”. In the case of “QVQIVESGRGLFQAGGSLRISCPASGYIFLANAMGLYRQAPGKERELVAAITSGGGGTYYADSVKARFTISGDNAKNPVYLLMNTLKPEDTAVYHCAADHGRDGSSIEYWGHGTQVTVSS” it was “low polyreactivity”; in that of “QVQIVESGRGLVQAGGSLRLSCAPSGRIFIYNAMGWYIQAPGKERELVAAISWRGGRTYYADSVKGRFTISRDNAKNTVYLQMNRLKPEDTAVYYCNAEPYGYERLYDYWGQGTQVNVSS”, “high polyreactivity”; in that of “QVQIVESRGGLVQAGGSLRLSCAASGSNLHYYTMGWYRQAPGNEREFVAGISWSGGRTYYADSVKGRFTISRDNAKNTVYFQMNSRKPEDTAVYYCNRQARRGFHRYHLYGYGYWGQGTQVTVSS”, “high polyreactivity”.

On to “QVQIVESVGGLVQAGGSLRLSCAASGSTFWFTDMGWYRQAPGKERELVAVITWTGGSTSYADSVKGRFTISRDNAKNTDYLQMKCLNAEDTADYYCDTPVKFGGVPYRYGYWGQGTEVTVSS”, for which the “polyreactivity (PSR sort gate)” value was “low polyreactivity”. In the case of “QVQIVETGGGLVQAGGSLRLSCAASGSIFSAYVMGWYRQAPGKERELVAAITRTGGRTYYADSVKGRFTISRDNAKNTVYLQMNSLKPEDTAVYYCAKEAITRTFPYRHEYWGQGTQVTVSS” it was “low polyreactivity”; in that of “QVQIVETGGGLVQAGGSLRLSCEASGSTFRNYAMGWYRQATGKERELDAAISSGGSTNYADSVKGRFTISRDNAKNTVFLQMNSLKPEYTAVYYCAAKAWYYPGSRIYYQYYYWGQGTQVTVSS”, “high polyreactivity”; in that of “QVQLAESGGALVQAGCSLRLSCSASGYTSAKNVMGWYIQAPGKERELVAAISRSGGRTYYADSVKGRFTISRDNAKNSVYLQMNSLKPEDTAVYYCAARSATNHADDYYYWGQGTQVTVSS”, “high polyreactivity”. Consider “QVQLAESGGGLVQAGGSLRLSCAASGSTFVSYAMGWYRQAPGKERELVAAIDWSGGNTDYADSVKGRFTISRDNAKNTVYLQMNSLKPEDTAVYYCNADSWPRRGYDYWGQGTQVTVSS”, for which the “polyreactivity (PSR sort gate)” value is “low polyreactivity”. On to “QVQLAESGGGLVQAGGSLRLSCAASGSTFVWYAMGWYRQAPGKEWELVAVIDWSGGSTSYADSVKGRFTISRDNAKNTVYFQMNSLKPEDTAVYYCAADYGHYYGLYYWGQGTQVTVSS”, for which the “polyreactivity (PSR sort gate)” value is “low polyreactivity”.

On to “QVQLDESGGGLVQAGGSLRLRCAASGFIFVSYAMGWYRQAPGKERELVAAISRGGGSTYYADSVKGRFTISRDNAKNTVYLQMNSLKPEDTAVYYCAAGRFYIDDYWGQGTQVTVSS”, for which the “polyreactivity (PSR sort gate)” value is listed as “high polyreactivity”. On to “QVQLEDSGGGLVQAGGSLLLSCPASGRIRYGMGWYRQAPGKERELVATITRGGSTNYADSVKGRFTISRDNAKNTVFLKMISLKPEDTAVYYCNAGSSWYYWRGYAYDYWGQGTQVSVSS”, for which the “polyreactivity (PSR sort gate)” value is “high polyreactivity”. As for “QVQLEDSGGGLVQAGGSLRLICAASGSIFGSYAMGWYRHAPGKERELVAAINSGGSTNYADSVKGRFTISRDNAKNTVYLQMNSLKPEDTAVYYCAARLYSNEYRYDYWGQGTQVTVSS”, the “polyreactivity (PSR sort gate)” value is “high polyreactivity”. As for “QVQLEDSGGGLVQAGGSLRLICAASGSIFGYYAMGWDRQAPGKERELVAAIDSGGSTYYADSVKGRFTISRDNAKNTVYLQMNSLKPEDTAVYYCAAGVSSFSPYDSWGQGTQVTVSS”, the entry is “low polyreactivity”; as for “QVQLEDSGGGLVQAGGSLRLSCAASGFIFLPNAMGWYRQAPGKERELVAAISTSDGSTYYADSVKGRFTISRDNAKNTVYLQMNSLKPEDTAVYYCAASYQFYRKYAYDYWGQGTQVTVSS”, “low polyreactivity”. As for “QVQLEDSGGGLVQAGGSLRLSCAASGFIFRYYAMGWYRKATGKERELVAAIDYSGGSTNYADSVKGRFTISRDNAKNTVYLQMNSLKPEDTAVYYCKAVHETTWQLYDYWGQGTQVTVSS”, the entry is “low polyreactivity”. For the sequence “QVQLEDSGGGLVQAGGSLRLSCAASGGIFLTYTMGWYRQAPGKEREFVAAIRSSSGRTYYADSVKGRFTISRDNAKNTVYLQMISLKPEDTSVYYCNAKYYGYRVGKYYPFGYWGQGTQVTVSS”, the “polyreactivity (PSR sort gate)” value was “high polyreactivity”. “QVQLEDSGGGLVQAGGSLRLSCAASGIIFYSYAMGWYRQAPVKERELVATISFSGDNTYYADSVKGRFTISRDNAKNTVYLQMNSLKPEDTAVYYCAAASTYGGYYYSVSFEYWGQGTQVTVSS”: the “polyreactivity (PSR sort gate)” value is listed as “low polyreactivity”. With “QVQLEDSGGGLVQAGGSLRLSCAASGLTFYGYTMGWYRQAPGKERELVAAISWSGGNTYYADSVKGRFTISRDNAKNTVYLQMNSLKPEDTAVYYCAAEHWTYDWVDYWGQGTQVTVSS”, the “polyreactivity (PSR sort gate)” value is recorded as “low polyreactivity”. For “QVQLEDSGGGLVQAGGSLRLSCAASGRTFRSNVMGWYRQAPGKERELVAAISKRGGSTFSADSVKGRFTISRDNAKNTVYLQMNSLKPEDTEVYYCAKDTPVYDYGTVYPDDYWGQGTQVTVSS”, the “polyreactivity (PSR sort gate)” value was “high polyreactivity”.

Regarding “QVQLEDSGGGLVQAGGSLRLSCAASGSIFILNTMGWYREAPGKERELVAGISYSGSTYYADSVKGRFTISRDNAKNTVYLQMNSLKPEDTAVYYCAADYGAAWYNDGYYYWGQGTQVTVSS”, the “polyreactivity (PSR sort gate)” value was “low polyreactivity”. As for “QVQLEDSGGGLVQAGGSLRLSCAASGSTFYTYAMGWYRQAPGKERELVAAITFIDGSTYYADSVKGRFTISRDNAKNTVYLQMNSLKPEDTAVYYCAADDAKFRYRDDYWGQGTQVTVSS”, the “polyreactivity (PSR sort gate)” value is reported as “low polyreactivity”. As for “QVQLEEAGGGLVQAGGSLRLSCAASGRTFFENAMGWYRQAPGKEREFVAAISYNGGSTYYADSVKGRFTISRDNAKNTVYLQMNSMKPDDTAVYYCAADPNYGYDYWGQGTQVTVSS”, the entry is “low polyreactivity”; as for “QVQLEESAGGLVQAGGSHRLSCADTGRTFRWYAMGWYRQAPGKERELVAAISRNGGSTSFADSVKGRFTISRDNAKKTVYLQLNSLKPEDTAVYYCAAGSRVQWYGYDYWGQGTQVTVSS”, “high polyreactivity”.
